Source: patent publication US20160313325A1

Assays:
[1] = molecular target: gp41 of pNL4-3 (HIV-1 pNL4-3 (subtype B, CXCR4-tropic))
[2] = molecular target: gp41 of mutant "D-I-A" (pNL-Bal with Glycine to Aspartic Acid at position 36 and Valine to Alanine at position 38 of gp41) (HIV-1 clone BAL2 (subtype B, CCR5-tropic))
[3] = molecular target: gp41 of mutant "G-I-A" (pNL-Bal with Valine to Alanine at position 38 of gp41) (HIV-1 clone BAL2 (subtype B, CCR5-tropic))
[4] = molecular target: gp41 of mutant "G-I-A" (pNL-Bal with Valine to Alanine at position 38 of gp41) (HIV-1 clone BAL2 (subtype B, CCR5-tropic)); remark: listed apart in the source

Substance T20 (Enfuvirtide, Fuzeon) (peptide) has an IC50 (nM), inhibition of viral replication, deCIPhR cell to cell infection [1] of 76 nM, an IC50 (nM), inhibition of viral replication, virus to cell infection [1] of 48 nM and an IC50 (nM), inhibition of viral replication, deCIPhR [2] of 2270 nM. The Rf (resistance factor, IC50 on mutant virus / IC50 on reference strain) [2] was 227 fold, the IC50 (nM), inhibition of viral replication, deCIPhR [3] was 127 nM and the Rf (resistance factor, IC50 on mutant virus / IC50 on reference strain) [3] was 12.7 fold. It also gave a Resistance factor (IC50mut/IC50wt) IC50 fold increase [4] of 13 fold.
